The record followed here is patent EP4782541A1 (Nanjing Probio Biotech Co., Ltd., dated 2026).

The term EC50 denotes the midpoint of the concentration-response curve. High values mean lower potency in that assay, low ones higher potency in that assay. As a reminder, the Kd is the free concentration of one partner at which half of the binding sites on the other are occupied at equilibrium, for simple one-to-one binding. Broadly, the koff is the rate constant with which the complex falls apart. As a reminder, the kon is a measure of how fast the partners come together. The low end stands for slower complex formation, the high end for faster complex formation.

The target of assay [1] is human ROR1 (on CHO-K1/ROR1 cells and ROR1 tumour cell lines) (human) (UniProt Q01973). Briefly: cell-based or functional assay.
human ROR1 (on CHO-K1/ROR1 cells and ROR1 tumour cell lines) (human), sequence (Q01973 30-937): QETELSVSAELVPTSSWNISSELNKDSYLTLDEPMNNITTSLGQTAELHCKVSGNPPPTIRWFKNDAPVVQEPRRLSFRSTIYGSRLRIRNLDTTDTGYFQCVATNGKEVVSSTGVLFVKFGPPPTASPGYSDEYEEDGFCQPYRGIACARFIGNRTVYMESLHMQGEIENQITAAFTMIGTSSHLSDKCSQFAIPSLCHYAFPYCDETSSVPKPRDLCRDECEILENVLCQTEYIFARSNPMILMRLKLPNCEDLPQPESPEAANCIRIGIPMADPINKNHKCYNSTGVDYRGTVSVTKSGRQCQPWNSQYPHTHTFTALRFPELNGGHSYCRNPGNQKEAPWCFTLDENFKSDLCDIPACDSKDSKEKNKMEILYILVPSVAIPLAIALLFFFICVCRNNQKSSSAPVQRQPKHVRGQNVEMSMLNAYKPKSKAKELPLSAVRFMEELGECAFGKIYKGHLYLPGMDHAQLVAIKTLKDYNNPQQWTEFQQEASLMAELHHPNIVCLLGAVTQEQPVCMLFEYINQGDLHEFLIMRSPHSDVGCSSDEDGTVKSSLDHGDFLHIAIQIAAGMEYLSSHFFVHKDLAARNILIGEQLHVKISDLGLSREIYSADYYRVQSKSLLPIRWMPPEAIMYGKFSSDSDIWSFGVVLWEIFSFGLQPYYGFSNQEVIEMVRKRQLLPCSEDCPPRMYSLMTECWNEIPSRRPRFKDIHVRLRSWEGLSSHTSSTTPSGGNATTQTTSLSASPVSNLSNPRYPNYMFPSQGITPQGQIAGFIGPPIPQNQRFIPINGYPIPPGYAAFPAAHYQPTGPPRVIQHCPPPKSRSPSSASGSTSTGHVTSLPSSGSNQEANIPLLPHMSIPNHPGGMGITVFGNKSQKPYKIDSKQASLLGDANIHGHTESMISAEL
Assay [2] shares this target. The experiment in a line: flow cytometry on PSN-1 cells (human ROR1 tumour cell line).
Assay [3] has the same target. Briefly: flow cytometry on CHO-K1/ROR1 cells overexpressing human ROR1.
Assay [4] has the same target. The experiment in a line: flow cytometry on A549 cells (human ROR1 tumour cell line). (A flow cytometer gives signals particle by particle.)
The target in assay [5] is T1, human CD3 (on Jurkat cells) (human, UniProt P07766 23-207; P09693 23-182; P04234 22-171).
T1 construct: whole, on cells
T1 sequence (P07766 23-207, chain 1 of 3): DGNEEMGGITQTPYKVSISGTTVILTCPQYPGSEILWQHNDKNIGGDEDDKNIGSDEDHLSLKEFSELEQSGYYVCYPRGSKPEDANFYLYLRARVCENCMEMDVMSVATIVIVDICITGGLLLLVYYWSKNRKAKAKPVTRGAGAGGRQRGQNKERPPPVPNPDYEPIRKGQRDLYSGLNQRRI
T1 sequence (P09693 23-182, chain 2 of 3): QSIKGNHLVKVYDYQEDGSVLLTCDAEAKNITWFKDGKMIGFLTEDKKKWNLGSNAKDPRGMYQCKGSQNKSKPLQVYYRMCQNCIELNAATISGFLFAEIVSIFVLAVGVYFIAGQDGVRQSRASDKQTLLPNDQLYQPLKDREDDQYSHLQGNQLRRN
T1 sequence (P04234 22-171, chain 3 of 3): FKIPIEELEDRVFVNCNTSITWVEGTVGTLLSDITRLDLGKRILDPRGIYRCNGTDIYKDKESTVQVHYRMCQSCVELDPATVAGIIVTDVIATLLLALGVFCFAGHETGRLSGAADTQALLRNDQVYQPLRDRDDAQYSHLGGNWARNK
Briefly: flow cytometry on Jurkat cells expressing human CD3.

Assay [6] deals with human ROR1 (on CHO-K1/ROR1 cells and ROR1 tumour cell lines) (human) (UniProt Q01973). Briefly: flow cytometry on Jeko-1 cells (human ROR1 tumour cell line).
The target is the same in assay [7]. Briefly: flow cytometry on MDA-MB-231 cells (human ROR1 tumour cell line).
Assay [8] shares this target. The experiment in a line: flow cytometry on A375 cells (human ROR1 tumour cell line).
Assay [9] has the same target. Briefly: flow cytometry on PA-1 cells (human ROR1 tumour cell line).
The target of assay [10] is T2, human ROR1 (on CHO-K1/ROR1 cells and ROR1 tumour cell lines) (human, UniProt Q01973 30-937).
T2 construct: whole, on cells; also called receptor tyrosine kinase-like orphan receptor 1
T2 sequence (Q01973 30-937): as the sequence (Q01973 30-937) above
The experiment in a line: flow cytometry on MDA-MB-231 cells (human ROR1 tumour cell line).

In assay [11] the target is T3, human ROR1 protein (human, UniProt Q01973 30-403, limits assumed).
T3 construct: Recombinant antigen of the SPR assay; also called ROR1 (SPR ligand)
T3 sequence (Q01973 30-403 limits assumed): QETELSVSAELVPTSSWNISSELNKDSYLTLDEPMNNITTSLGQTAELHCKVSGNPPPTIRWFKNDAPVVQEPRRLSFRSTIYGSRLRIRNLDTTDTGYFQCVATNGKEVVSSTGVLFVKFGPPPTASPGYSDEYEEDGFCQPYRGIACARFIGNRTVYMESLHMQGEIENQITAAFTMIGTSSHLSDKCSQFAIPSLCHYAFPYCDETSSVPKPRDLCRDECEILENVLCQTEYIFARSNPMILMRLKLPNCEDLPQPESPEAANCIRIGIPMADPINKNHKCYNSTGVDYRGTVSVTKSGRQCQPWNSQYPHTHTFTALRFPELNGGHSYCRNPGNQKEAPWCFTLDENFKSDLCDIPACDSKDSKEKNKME
The experiment in a line: SPR (Biacore 8K); human ROR1 amine-coupled at 12.50 ug/mL as ligand, antibody as analyte. (In SPR one partner is held on a chip, and binding of the other changes the refractive index at the surface.)

Assay [12] addresses T3, human ROR1 protein. The experiment in a line: SPR (Biacore 8K); human ROR1 amine-coupled at 0.05 ug/mL as ligand, antibody as analyte.
The target in assay [13] is T2, human ROR1 (on CHO-K1/ROR1 cells and …). Briefly: cell-based or functional assay.
The target is the same in assay [14]. The experiment in a line: flow cytometry on CHO-K1/ROR1 cells overexpressing human ROR1.
The target in assay [15] is T3, human ROR1 protein. The experiment in a line: SPR (Biacore 8K); human ROR1 amine-coupled at 0.50 ug/mL as ligand, antibody as analyte.
In assay [16] the target is T2, human ROR1 (on CHO-K1/ROR1 cells and …). The experiment in a line: flow cytometry on PA-1 cells (human ROR1 tumour cell line).
For assay [17] the target is unchanged. The experiment in a line: flow cytometry on PSN-1 cells (human ROR1 tumour cell line).
The target of assay [18] is T3, human ROR1 protein. Briefly: SPR (Biacore 8K); human ROR1 amine-coupled at 0.10 ug/mL as ligand, antibody as analyte.
Assay [19] has as its target T3, human ROR1 protein. The experiment in a line: SPR (Biacore 8K); human ROR1 amine-coupled at 2.50 ug/mL as ligand, antibody as analyte.
Assay [20] has as its target T2, human ROR1 (on CHO-K1/ROR1 cells and …). Briefly: flow cytometry on Jeko-1 cells (human ROR1 tumour cell line).
The target is the same in assay [21]. The experiment in a line: flow cytometry on A549 cells (human ROR1 tumour cell line).
The target is the same in assay [22]. The experiment in a line: flow cytometry on A375 cells (human ROR1 tumour cell line).
Assay [23] concerns the target T3, human ROR1 protein. Briefly: SPR (Biacore 8K); human ROR1 amine-coupled at 62.50 ug/mL as ligand, antibody as analyte.

With EMB-07 (bispecific antibody), the EC50 of T cell activation based on reporter gene (luciferase), target cells A375 in assay [1] was 0.428 nM. For the same molecule, the EC50 of T cell activation based on reporter gene (luciferase), target cells Jeko-1 in [1] amounted to 0.155 nM. Also, in assay [1], the EC50 of T cell activation based on reporter gene (luciferase), target cells MDA-MB-231 came out at 0.0644 nM. The EC50 in assay [2] worked out at 6.09 nM; in assay [3] it was 2.39 nM; in assay [4], 4.01 nM; in assay [5], 4.45 nM; in [6], 7.15 nM; in assay [7], 3.84 nM. Moreover, the EC50 in assay [8] amounted to 2.5 nM; in [9], 5.06 nM.

B1: BsAb-12 (bispecific antibody, human IgG1, lambda)
chain: EVQLVESGGGLVQPGGSLRLSCAASGRSFSSFQMGWFRQAPGKEREFVAASGWSGGPTYYWDSVIGRFTISTDNSKNTLYLQMNSLRAEDTAVYYCYEDRVLSGRPVRYWGQGTLVTVSSDKTHTCPPCPAPESTRGPSVFLFPPKPKDTLMISRTPEVTCVVVDVSHEDPEVKFNWYVDGVEVHNAKTKPREEQYNSTYRVVSVLTVLHQDWLNGKEYKCKVSNKALPAPIEKTISKAKGQPREPQVCTLPPSRDELTKNQVSLSCAVKGFYPSDIAVEWESNGQPENNYKTTPPVLDSDGSFFLVSKLTVDKSRWQQGNVFSCSVMHEALHNHYTQKSLSLSPGK
heavy: EVQLVESGGGLVQPGGSLRLSCAASGRSFSSFQMGWFRQAPGKEREFVAASGWSGGPTYYWDSVIGRFTISTDNSKNTLYLQMNSLRAEDTAVYYCYEDRVLSGRPVRYWGQGTLVTVSSGGGGSGGGGSGGGGSEVQLVESGGGLVQPGRSLRLSCAASGFTFNTYAMNWVRQAPGKGLEWVARIRSKYNNYATYYADSVKDRFTISRDDSKSIAYLQMNSLKTEDTAVYYCVRHGNFGNSYVSWFAYWGQGTLVTVSSASTKGPSVFPLAPSSKSTSGGTAALGCLVKDYFPEPVTVSWNSGALTSGVHTFPAVLQSSGLYSLSSVVTVPSSSLGTQTYICNVNHKPSNTKVDKKVEPKSCDKTHTCPPCPAPESTRGPSVFLFPPKPKDTLMISRTPEVTCVVVDVSHEDPEVKFNWYVDGVEVHNAKTKPREEQYNSTYRVVSVLTVLHQDWLNGKEYKCKVSNKALPAPIEKTISKAKGQPREPQVYTLPPCRDELTKNQVSLWCLVKGFYPSDIAVEWESNGQPENNYKTTPPVLDSDGSFFLYSKLTVDKSRWQQGNVFSCSVMHEALHNHYTQKSLSLSPGK
light: QTVVTQEPSLTVSPGGTVTLTCRSSTGAVTTSNYANWVQQKPGQAPRGLIGGTNKRAPGVPARFSGSLLGGKAALTLSGVQPEDEAEYFCALWYSNLWVFGGGTKLTVLGQPKAAPSVTLFPPSSEELQANKATLVCLISDFYPGAVTVAWKADSSPVKAGVETTTPSKQSNNKYAASSYLSLTPEQWKSHRSYSCQVTHEGSTVEKTVAPTECS
notes: also called BsAb-12 CD3×ROR1
Consider B1, for which the EC50 worked out at 0.308 nM in assay [10]; 0.223 nM in [14]; 0.547 nM in assay [16]; 1.17 nM in assay [17]; 0.133 nM in [20]; 0.415 nM in assay [21]. The EC50 in [22] was found to be 0.155 nM; in assay [5], 1.39 nM. The Kd was determined as 0.0349 nM in assay [11]; 0.649 nM in assay [12]; 0.354 nM in assay [15]; 0.359 nM in [18]; 0.106 nM in assay [19]; 0.0267 nM in assay [23]. For the same molecule, the koff in assay [11] was found to be 5.83e-05 s⁻¹; in assay [12], 0.000421 s⁻¹; in [15], 0.000207 s⁻¹; in [18] it was 0.000169 s⁻¹; in assay [19] it was 8.37e-05 s⁻¹; in assay [23], 2.83e-05 s⁻¹. Besides, the on-rate constant (kon) in assay [11] came to 1.67e+06 M⁻¹ s⁻¹; in [12], 649000 M⁻¹ s⁻¹; in assay [15], 585000 M⁻¹ s⁻¹; in assay [18], 471000 M⁻¹ s⁻¹; in assay [19], 788000 M⁻¹ s⁻¹; in assay [23], 1.06e+06 M⁻¹ s⁻¹. The “EC50 of T cell activation based on reporter gene (luciferase), target cells A375” value in assay [13] amounted to 0.0117 nM. Besides, in [13], the “EC50 of T cell activation based on reporter gene (luciferase), target cells Jeko-1” value amounted to 0.00748 nM. For the same molecule, the “EC50 of T cell activation based on reporter gene (luciferase), target cells MDA-MB-231” value in assay [13] worked out at 0.00258 nM.

B2: BsAb-9 (bispecific antibody, human IgG1, lambda)
chain: EVQLVESGGGLVQPGGSLRLSCAASGFISRFYAMGWYRQAPGKQRELVARISSMGWTYYADSVKGRFTISIDNSKNTLYLQMNSLRAEDTAVYYCNARNLWGQGTLVTVSSDKTHTCPPCPAPESTRGPSVFLFPPKPKDTLMISRTPEVTCVVVDVSHEDPEVKFNWYVDGVEVHNAKTKPREEQYNSTYRVVSVLTVLHQDWLNGKEYKCKVSNKALPAPIEKTISKAKGQPREPQVCTLPPSRDELTKNQVSLSCAVKGFYPSDIAVEWESNGQPENNYKTTPPVLDSDGSFFLVSKLTVDKSRWQQGNVFSCSVMHEALHNHYTQKSLSLSPGK
heavy: EVQLVESGGGLVQPGGSLRLSCAASGFISRFYAMGWYRQAPGKQRELVARISSMGWTYYADSVKGRFTISIDNSKNTLYLQMNSLRAEDTAVYYCNARNLWGQGTLVTVSSGGGGSGGGGSGGGGSEVQLVESGGGLVQPGRSLRLSCAASGFTFNTYAMNWVRQAPGKGLEWVARIRSKYNNYATYYADSVKDRFTISRDDSKSIAYLQMNSLKTEDTAVYYCVRHGNFGNSYVSWFAYWGQGTLVTVSSASTKGPSVFPLAPSSKSTSGGTAALGCLVKDYFPEPVTVSWNSGALTSGVHTFPAVLQSSGLYSLSSVVTVPSSSLGTQTYICNVNHKPSNTKVDKKVEPKSCDKTHTCPPCPAPESTRGPSVFLFPPKPKDTLMISRTPEVTCVVVDVSHEDPEVKFNWYVDGVEVHNAKTKPREEQYNSTYRVVSVLTVLHQDWLNGKEYKCKVSNKALPAPIEKTISKAKGQPREPQVYTLPPCRDELTKNQVSLWCLVKGFYPSDIAVEWESNGQPENNYKTTPPVLDSDGSFFLYSKLTVDKSRWQQGNVFSCSVMHEALHNHYTQKSLSLSPGK
light: QTVVTQEPSLTVSPGGTVTLTCRSSTGAVTTSNYANWVQQKPGQAPRGLIGGTNKRAPGVPARFSGSLLGGKAALTLSGVQPEDEAEYFCALWYSNLWVFGGGTKLTVLGQPKAAPSVTLFPPSSEELQANKATLVCLISDFYPGAVTVAWKADSSPVKAGVETTTPSKQSNNKYAASSYLSLTPEQWKSHRSYSCQVTHEGSTVEKTVAPTECS
notes: also called BsAb-09
For the molecule B2, the Kd is 0.00664 nM in [11]; 0.0811 nM in [12]; 0.0216 nM in [15]; 0.0497 nM in [18]; 0.0129 nM in [19]; 0.00682 nM in assay [23]. Besides, the koff worked out at 0.000242 s⁻¹ in [11]; 0.00143 s⁻¹ in assay [12]; 0.00083 s⁻¹ in assay [15]; 0.00113 s⁻¹ in assay [18]; 0.000521 s⁻¹ in [19]; 0.000187 s⁻¹ in [23]. Moreover, the on-rate (kon) in assay [11] was determined as 3.65e+07 M⁻¹ s⁻¹; in assay [12], 1.76e+07 M⁻¹ s⁻¹; in assay [15], 3.85e+07 M⁻¹ s⁻¹; in [18], 2.28e+07 M⁻¹ s⁻¹; in assay [19] it was 4.05e+07 M⁻¹ s⁻¹; in [23] it was 2.73e+07 M⁻¹ s⁻¹. For the same molecule, the EC50 worked out at 0.0864 nM in [14] and 1.38 nM in [5].
